# Results reported in IntAct's records for PubMed 16299177.
# B1: ABSCISIC ACID-… 5-like protein 7 (Arabidopsis thaliana (Mouse-ear cress)), Q9M7Q2 (parent)
# chain: MGTHINFNNLGGGGHPGGEGSSNQMKPTGSVMPLARQSSVYSLTFDELQNTLGGPGKDFGSMNMDELLKSIWTAEEAQAMAMTSAPAATAVAQPGAGIPPPGGNLQRQGSLTLPRTISQKTVDEVWKCLITKDGNMEGSSGGGGESNVPPGRQQTLGEMTLEEFLFRAGVVREDNCVQQMGQVNGNNNNGFYGNSTAAGGLGFGFGQPNQNSITFNGTNDSMILNQPPGLGLKMGGTMQQQQQQQQLLQQQQQQMQQLNQPHPQQRLPQTIFPKQANVAFSAPVNITNKGFAGAANNSINNNNGLASYGGTGVTVAATSPGTSSAENNSLSPVPYVLNRGRRSNTGLEKVIERRQRRMIKNRESAARSRARKQAYTLELEAEIEKLKKTNQELQKKQAEMVEMQKNELKETSKRPWGSKRQCLRRTLTGPW
# partner: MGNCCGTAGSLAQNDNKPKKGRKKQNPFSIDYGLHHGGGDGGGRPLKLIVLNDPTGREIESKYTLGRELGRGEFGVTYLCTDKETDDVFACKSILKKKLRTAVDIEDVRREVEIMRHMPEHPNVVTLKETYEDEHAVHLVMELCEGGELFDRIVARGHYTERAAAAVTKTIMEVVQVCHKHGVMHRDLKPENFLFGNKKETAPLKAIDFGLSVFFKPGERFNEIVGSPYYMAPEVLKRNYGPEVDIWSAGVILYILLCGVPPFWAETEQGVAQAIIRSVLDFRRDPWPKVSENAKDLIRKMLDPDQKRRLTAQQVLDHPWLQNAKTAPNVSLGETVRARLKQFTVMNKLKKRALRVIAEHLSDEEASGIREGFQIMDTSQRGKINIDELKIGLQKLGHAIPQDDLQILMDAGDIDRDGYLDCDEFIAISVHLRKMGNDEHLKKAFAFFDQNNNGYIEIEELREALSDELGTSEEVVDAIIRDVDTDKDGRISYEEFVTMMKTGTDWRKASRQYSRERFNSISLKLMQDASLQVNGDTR
# Variants of: B1
# Settings: with cdpkw_arath CPK32, Q6NLQ6
row,effect of a mutation on the interaction,Variant
1,disrupting interaction,S110A

# Variants of: B1
# Settings: with cdpkw_arath CPK32, Q6NLQ6
# Remark: another data set of the same source
row,effect of a mutation on the interaction,Variant
1,decreasing interaction,S110A
